Results on 21 substances are retold here after US10556944B2, “Fab region-binding peptide” (priority 2013, dated 2020).

The experiment concerns the target T1, anti-TNFα antibody-Fab (IgG-Fab derived from anti-TNFα monoclonal antibody, adalimumab) (Homo sapiens, UniProt P01834+P01857).
T1 construct: cleaving a humanized monoclonal IgG formulation as a starting material into a Fab fragment and an Fc fragment by papain; purchased
Kind of experiment: Biacore 3000 surface plasmon resonance, affinity of SpG-β1 mutants for immobilized IgG-Fab. The class given is binding. The settings on record: Table 2, Example 3, GST-fused one-domain peptide; for koff / kon: 25° C., pH 7.4; for KA Vs. Wild: fold of wild-type KA. A general note: In SPR one partner is held on a chip, and binding of the other changes the refractive index at the surface.

Where no end group is shown, it is not given here.

What is called koff is a measure of how fast the partners let go of each other. Take “K13T/E19I/A23T/T25M/F30L: GST-fused one-domain SpG-β1 mutant, amino acid SEQ ID NO: 49 (TTYKLILNGKTLTGETTTIAVDTAMAEKVLKQYANDNGVDGEWTYDDATKTFTVTE; also: GST-fused)”: the KA is 1.12e+06 M⁻¹, the koff amounted to 0.0091 s⁻¹, the kon came to 102000 s/M and the “KA Vs. Wild” value was 3.0.
Take “K13T/E19I/D22E/A24T/F30L/Y33F/D47G: GST-fused one-domain SpG-β1 mutant, amino acid SEQ ID NO: 79 (TTYKLILNGKTLTGETTTIAVEATTAEKVLKQFANDNGVDGEWTYDGATKTFTVTE; also: GST-fused)”: the KA is 1.32e+06 M⁻¹, the koff came to 0.0053 s⁻¹, the kon came out at 69500 s/M and the “KA Vs. Wild” value turned out to be 3.5.
As to “K13T/E19I/E27D/F30L/K31R: GST-fused one-domain SpG-β1 mutant, amino acid SEQ ID NO: 35 (TTYKLILNGKTLTGETTTIAVDAATADKVLRQYANDNGVDGEWTYDDATKTFTVTE; also: GST-fused)”, the KA came out at 2.74e+06 M⁻¹, the kon is 150000 s/M and the “KA Vs. Wild” value was 7.3.
On to “K13T/E19I/F30L/D47A/K50E: GST-fused one-domain SpG-β1 mutant, amino acid SEQ ID NO: 65 (TTYKLILNGKTLTGETTTIAVDAATAEKVLKQYANDNGVDGEWTYDAATETFTVTE; also: GST-fused)”, for which the KA turned out to be 1.14e+06 M⁻¹, the koff was 0.0062 s⁻¹, the kon turned out to be 70900 s/M and the “KA Vs. Wild” value amounted to 3.1.
With “K13T/E19I/F30L/D47N: GST-fused one-domain SpG-β1 mutant, amino acid SEQ ID NO: 43 (TTYKLILNGKTLTGETTTIAVDAATAEKVLKQYANDNGVDGEWTYDNATKTFTVTE; also: GST-fused)”, the KA stood at 1.27e+06 M⁻¹, the koff was 0.0073 s⁻¹, the kon stood at 92600 s/M and the “KA Vs. Wild” value stood at 3.4.
The like results for “K13T/E19I/F30L/Y33F/V39I/D47H: GST-fused one-domain SpG-β1 mutant, amino acid SEQ ID NO: 23 (TTYKLILNGKTLTGETTTIAVDAATAEKVLKQFANDNGIDGEWTYDHATKTFTVTE; also: GST-fused)” were, in that order, 2.06e+06 M⁻¹, 0.0039 s⁻¹, 79400 s/M and 5.5.
For “K13T/E19I/F30L/Y33F: GST-fused one-domain SpG-β1 mutant, amino acid SEQ ID NO: 47 (TTYKLILNGKTLTGETTTIAVDAATAEKVLKQFANDNGVDGEWTYDDATKTFTVTE; also: GST-fused)”, the KA is 1.59e+06 M⁻¹, the off-rate constant (koff) turned out to be 0.0067 s⁻¹, the kon was 106000 s/M and the “KA Vs. Wild” value is reported as 4.3.
On to “K13T/E19I/F30L/Y45F/D47Y: GST-fused one-domain SpG-β1 mutant, amino acid SEQ ID NO: 83 (TTYKLILNGKTLTGETTTIAVDAATAEKVLKQYANDNGVDGEWTFDYATKTFTVTE; also: GST-fused)”, for which the KA amounted to 1.39e+06 M⁻¹, the koff came out at 0.007 s⁻¹, the kon came to 97700 s/M and the “KA Vs. Wild” value amounted to 3.7.
On to “K13T/E19I/K28I/F30L/N35F: GST-fused one-domain SpG-β1 mutant, amino acid SEQ ID NO: 57 (TTYKLILNGKTLTGETTTIAVDAATAEIVLKQYAFDNGVDGEWTYDDATKTFTVTE; also: GST-fused)”, for which the KA came to 1.4e+06 M⁻¹, the koff was 0.0063 s⁻¹, the kon was found to be 88000 s/M and the “KA Vs. Wild” value is 3.7.
With “K13T/E19I/K28I/F30L/Y33F/E42Q/D47Y: GST-fused one-domain SpG-β1 mutant, amino acid SEQ ID NO: 59 (TTYKLILNGKTLTGETTTIAVDAATAEIVLKQFANDNGVDGQWTYDYATKTFTVTE; also: GST-fused)”, the KA came to 1.45e+06 M⁻¹, the off-rate (koff) was found to be 0.0063 s⁻¹, the kon stood at 91000 s/M and the “KA Vs. Wild” value turned out to be 3.9.
In the case of “K13T/E19I/K28N/E42K: GST-fused one-domain SpG-β1 mutant, amino acid SEQ ID NO: 39 (TTYKLILNGKTLTGETTTIAVDAATAENVFKQYANDNGVDGKWTYDDATKTFTVTE; also: GST-fused)”, the KA came out at 1.1e+06 M⁻¹, the koff was 0.0124 s⁻¹, the kon amounted to 137000 s/M and the “KA Vs. Wild” value was determined as 3.0.
For “K13T/E19I/K28N/F30L/D40V: GST-fused one-domain SpG-β1 mutant, amino acid SEQ ID NO: 33 (TTYKLILNGKTLTGETTTIAVDAATAENVLKQYANDNGVVGEWTYDDATKTFTVTE; also: GST-fused)”, the KA is 1.43e+06 M⁻¹, the kon was determined as 108000 s/M and the “KA Vs. Wild” value is given as 3.8.
Regarding “K13T/E19I/K28N/F30L/Y33F: GST-fused one-domain SpG-β1 mutant, amino acid SEQ ID NO: 53 (TTYKLILNGKTLTGETTTIAVDAATAENVLKQFANDNGVDGEWTYDDATKTFTVTE; also: GST-fused)”, the KA came to 1.44e+06 M⁻¹, the koff was 0.0061 s⁻¹, the kon was 88000 s/M and the “KA Vs. Wild” value is listed as 3.9.
For the substance “K13T/E19I/K28R/F30L/Y33F: GST-fused one-domain SpG-β1 mutant, amino acid SEQ ID NO: 27 (TTYKLILNGKTLTGETTTIAVDAATAERVLKQFANDNGVDGEWTYDDATKTFTVTE; also: GST-fused)”, the KA is 2.02e+06 M⁻¹, the kon was found to be 85500 s/M and the “KA Vs. Wild” value was 5.4.
For “K13T/E19I/V21D/K28I/F30L/K31R/D47H: GST-fused one-domain SpG-β1 mutant, amino acid SEQ ID NO: 75 (TTYKLILNGKTLTGETTTIADDAATAEIVLRQYANDNGVDGEWTYDHATKTFTVTE; also: GST-fused)”, the KA was 1.39e+06 M⁻¹, the koff stood at 0.0068 s⁻¹, the kon is 95000 s/M and the “KA Vs. Wild” value came to 3.7.
The like results for “K13T/E19I/V21D/T25M/F30L/Y33F/N35F/D47A: GST-fused one-domain SpG-β1 mutant, amino acid SEQ ID NO: 55 (TTYKLILNGKTLTGETTTIADDAAMAEKVLKQFAFDNGVDGEWTYDAATKTFTVTE; also: GST-fused)” were, in that order, 3.47e+06 M⁻¹, 0.003 s⁻¹, 104000 s/M and 9.3.
The like results for “K13T/E19I/V21N/K28I/F30L: GST-fused one-domain SpG-β1 mutant, amino acid SEQ ID NO: 37 (TTYKLILNGKTLTGETTTIANDAATAEIVLKQYANDNGVDGEWTYDDATKTFTVTE; also: GST-fused)” were, in that order, 3.01e+06 M⁻¹, 0.0071 s⁻¹, 214000 s/M and 8.1.
The like results for “K13T/E19I/Y33F/N35Y/V39L: GST-fused one-domain SpG-β1 mutant, amino acid SEQ ID NO: 41 (TTYKLILNGKTLTGETTTIAVDAATAEKVFKQFAYDNGLDGEWTYDDATKTFTVTE; also: GST-fused)” were, in that order, 1.87e+06 M⁻¹, 0.0049 s⁻¹, 90500 s/M and 5.0.
“K13T/T18A/E19V/F30L/Y33F: GST-fused one-domain SpG-β1 mutant, amino acid SEQ ID NO: 67 (TTYKLILNGKTLTGETTAVAVDAATAEKVLKQFANDNGVDGEWTYDDATKTFTVTE; also: GST-fused)”: the KA was found to be 2.85e+06 M⁻¹, the koff is 0.0033 s⁻¹, the kon came out at 93600 s/M and the “KA Vs. Wild” value is reported as 7.6.
The like results for “K13T/V21A/F30L/Y33F/D40E: GST-fused one-domain SpG-β1 mutant, amino acid SEQ ID NO: 51 (TTYKLILNGKTLTGETTTEAADAATAEKVLKQFANDNGVEGEWTYDDATKTFTVTE; also: GST-fused)” were, in that order, 1.78e+06 M⁻¹, 0.0078 s⁻¹, 139000 s/M and 4.8.
Take “K13T/V21I/A23T/F30L/E42L: GST-fused one-domain SpG-β1 mutant, amino acid SEQ ID NO: 25 (TTYKLILNGKTLTGETTTEAIDTATAEKVLKQYANDNGVDGLWTYDDATKTFTVTE; also: GST-fused)”: the KA came to 1.44e+06 M⁻¹, the kon was found to be 85000 s/M and the “KA Vs. Wild” value stood at 3.9.
